In the data set the test system is Escherichia coli TOP10. The data set is described as follows: shrunken log2 fold change of peptide-encoding DNA abundance (4.5 h post-induction vs induction); higher = less antimicrobial activity (less host growth inhibition). The settings on record: time post-induction: 4.5 h; library: site-saturation at positions 5, 18, 19, 20.

Here are results for 50 sequences from the supplement of paper PMC9112550, “Optimization of the antimicrobial peptide Bac7 by deep mutational scanning” (BMC Biology, 2022).
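Note: peptides expressed intracellularly from a pBAD plasmid library in pooled LB shake-flask culture, induced with 0.3% L-arabinose, DNA abundance read by NGS, three biological replicates, DESeq2 with apeglm shrinkage.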

As for RRIRVRPPRLPRPRPRPNNAPRP, the “shrunken log2 fold change” value was -0.0777. To RRIRERPPRLPRPRPRPKPMPRP belongs 0.21. With RRIRSRPPRLPRPRPRPDELPRP, the “shrunken log2 fold change” value was -0.0328. For RRIRARPPRLPRPRPRPYKIPRP, the “shrunken log2 fold change” value is -0.455. For the sequence RRIRHRPPRLPRPRPRPCGCPRP, the “shrunken log2 fold change” value is -0.0378. For RRIRCRPPRLPRPRPRPKIIPRP, the “shrunken log2 fold change” value is -0.932. As for RRIRLRPPRLPRPRPRPRGHPRP, the “shrunken log2 fold change” value is 0.078.

Take RRIRDRPPRLPRPRPRPGELPRP: the “shrunken log2 fold change” value is 0.684.

Take RRIRIRPPRLPRPRPRPQEMPRP: the “shrunken log2 fold change” value is -0.379.

Turning to RRIRYRPPRLPRPRPRPNFYPRP, the “shrunken log2 fold change” value was -0.689. As to RRIRQRPPRLPRPRPRPKQGPRP, the “shrunken log2 fold change” value was 0.401. For the sequence RRIRFRPPRLPRPRPRPHIKPRP, the “shrunken log2 fold change” value is -0.793.

As to RRIRERPPRLPRPRPRPYLSPRP, the “shrunken log2 fold change” value was -0.515. As to RRIRFRPPRLPRPRPRPCNDPRP, the “shrunken log2 fold change” value is -0.122. Regarding RRIRNRPPRLPRPRPRPYFCPRP, the “shrunken log2 fold change” value is -0.5. For RRIRRRPPRLPRPRPRPEAVPRP the value was 1.53; for RRIRYRPPRLPRPRPRPHYHPRP, -0.241; for RRIRLRPPRLPRPRPRPDPMPRP, -0.00264.

In the case of RRIRWRPPRLPRPRPRPRHKPRP, the “shrunken log2 fold change” value is -0.0379. Turning to RRIRYRPPRLPRPRPRPWMGPRP, the “shrunken log2 fold change” value is -0.294. Turning to RRIRKRPPRLPRPRPRPCIHPRP, the “shrunken log2 fold change” value is -0.124. For the sequence RRIRERPPRLPRPRPRPWCMPRP, the “shrunken log2 fold change” value was -0.533. For RRIRTRPPRLPRPRPRPAHFPRP, the “shrunken log2 fold change” value amounted to 0.13. Consider RRIRKRPPRLPRPRPRPCGMPRP, for which the “shrunken log2 fold change” value turned out to be 0.858.

As for RRIRNRPPRLPRPRPRPYQKPRP, the “shrunken log2 fold change” value is -0.0633. On to RRIRMRPPRLPRPRPRPSTNPRP, for which the “shrunken log2 fold change” value was 0.0712. RRIRKRPPRLPRPRPRPYIHPRP: the “shrunken log2 fold change” value was -0.227. With RRIRHRPPRLPRPRPRPIVQPRP, the “shrunken log2 fold change” value was -0.115. As for RRIRMRPPRLPRPRPRPTMIPRP, the “shrunken log2 fold change” value was -0.185. To RRIRGRPPRLPRPRPRPPMVPRP belongs 0.277; to RRIRLRPPRLPRPRPRPHYTPRP, -0.118. To RRIRRRPPRLPRPRPRPMQLPRP belongs 0.596; to RRIRRRPPRLPRPRPRPHGTPRP, 0.00291; to RRIRYRPPRLPRPRPRPFKQPRP, -1.41. As to RRIRMRPPRLPRPRPRPCNVPRP, the “shrunken log2 fold change” value is 0.0415. Take RRIRLRPPRLPRPRPRPLNVPRP: the “shrunken log2 fold change” value is 0.0831.

Consider RRIRWRPPRLPRPRPRPFMVPRP, for which the “shrunken log2 fold change” value was -0.371. As to RRIRMRPPRLPRPRPRPGQCPRP, the “shrunken log2 fold change” value is 0.234. Take RRIRMRPPRLPRPRPRPLEYPRP: the “shrunken log2 fold change” value came to 0.0611. For RRIRLRPPRLPRPRPRPILLPRP, the “shrunken log2 fold change” value was -0.235.

RRIRFRPPRLPRPRPRPMMVPRP: the “shrunken log2 fold change” value is -0.112. For RRIRWRPPRLPRPRPRPTWSPRP the value was 0.541. For RRIRARPPRLPRPRPRPTVCPRP, the “shrunken log2 fold change” value came to 0.505. RRIRERPPRLPRPRPRPPGCPRP: the “shrunken log2 fold change” value stood at 0.124. To RRIRMRPPRLPRPRPRPDIDPRP belongs 0.467. Turning to RRIRCRPPRLPRPRPRPRQHPRP, the “shrunken log2 fold change” value was -0.0138. To RRIRPRPPRLPRPRPRPPYPPRP belongs -0.0364; to RRIRARPPRLPRPRPRPRSDPRP, 0.257; to RRIRDRPPRLPRPRPRPHKHPRP, -0.217. RRIRHRPPRLPRPRPRPGMAPRP: the “shrunken log2 fold change” value stood at 0.0763.
